Assays:
Details in all cases: protein: extract; tags: Cy5-labelled; expressed as ubiquitin fusion in Saccharomyces cerevisiae AF103 (YEpE10 plasmid); yeast extract preparation
[1] = target: T1, human estrogen receptor (recombinant hER, 65 kDa) (Homo sapiens, UniProt P03372 P03372:1-595); assay: evanescent fiber optic sensor; with 1e-6 M estrone; control 3.51
Description: (§1) This solution comprised said calibration standard of component 6a. […] This receptor preparation was used as the calibration solution. Immediately after preparation it was pipetted in 135 μl aliquots into microcentrifuge tubes, snap frozen and stored at −80° C. They were not thawed again until they were used with the fiber sensor. Sample solutions of component 6a were similarly prepared, except that the dilution at the end with receptor buffer gave a total receptor concentration of […]. If the solution was to be used with an ERE fiber (component 1a type 2), then polydeoxyinosinic-deoxycytidylic acid sodium salt was added to the receptor buffer to prevent nonspecific binding to the ERE fiber. Solutions containing 4.4×10⁻¹⁰ M Cy5-tagged-estrogen-receptor solution and in addition to a predetermined amount of estrogen or estrogen mimic were created to test the impact of said estrogen or estrogen mimic.
(§2) 12) Using fiber sensors of component 1a type 2, and the foregoing procedure the S/C value was calculated for several different estrogens tested at 10⁻⁶ M concentration.

[2] = target: T1, human estrogen receptor (recombinant …); assay: evanescent fiber optic sensor; with 1e-6 M zearalenone; control 3.51
Description: as §1, §2

[3] = target: T1, human estrogen receptor (recombinant …); assay: evanescent fiber optic sensor; control, no ligand; 4.4e-10 M receptor; 500 mM KCl phosphate pH 7.5, poly(dI-dC)
Description: as §1, §2

[4] = target: T1, human estrogen receptor (recombinant …); assay: evanescent fiber optic sensor; with 1e-6 M diethylstilbestrol; control 3.51
Description: as §1, §2

T1 sequence (P03372 whole entry, one chain of several): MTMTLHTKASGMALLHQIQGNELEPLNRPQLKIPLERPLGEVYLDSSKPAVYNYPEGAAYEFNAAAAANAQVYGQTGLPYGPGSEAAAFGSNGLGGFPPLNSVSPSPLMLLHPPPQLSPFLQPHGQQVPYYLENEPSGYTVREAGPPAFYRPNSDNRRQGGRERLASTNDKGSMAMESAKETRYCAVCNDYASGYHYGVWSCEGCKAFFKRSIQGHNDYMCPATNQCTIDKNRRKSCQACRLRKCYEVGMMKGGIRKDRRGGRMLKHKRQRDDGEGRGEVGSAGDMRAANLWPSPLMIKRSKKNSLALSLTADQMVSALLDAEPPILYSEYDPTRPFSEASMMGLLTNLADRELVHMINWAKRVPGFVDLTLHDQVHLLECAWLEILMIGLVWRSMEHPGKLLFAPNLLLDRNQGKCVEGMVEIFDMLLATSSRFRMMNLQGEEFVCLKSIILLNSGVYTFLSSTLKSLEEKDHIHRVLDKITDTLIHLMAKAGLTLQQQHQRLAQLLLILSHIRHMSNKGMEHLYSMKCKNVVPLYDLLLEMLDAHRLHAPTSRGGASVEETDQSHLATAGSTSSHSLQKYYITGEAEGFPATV

B1: ERE (Xenopus vitellogenin A2 estrogen response element) (dsDNA)
DNA 1: GTCCAAAGTCAGGTCACAGTGACCTGATCAAAGTT
DNA 2: AACTTTGATCAGGTCACTGTGACCTGACTTTGGAC
modifications: amine on the 5' G residue of one strand, covalently linked to optical fiber via GMBS
- binding signal [1]: 4.44 S/C ratio
- binding signal [2]: 5.01 S/C ratio
- binding signal [3]: 3.51 S/C ratio
- binding signal [4]: 4.87 S/C ratio

— patent US20020137055, “Method and apparatus for measurement of the effect of test compounds on signal transduction at the level of biological receptors” (published 2002)
